# Measurements taken from paper PMC11614891, “Accurate de novo design of heterochiral protein–protein interactions” (Cell Research, 2024).
# Values joined by “and” are separate entries in the source; they are usually repeats but may differ in a detail not shown here. Identical values can stand only once. Square brackets hold non-standard residues; d marks the D form. Ends that are not written are not given here.
# B1: L-Pep-1 (peptide)
# peptide: DEHELLETAARWFYEIAKRA
# modifications: also: biotinylated (site not given here)
# notes: artificial amphipathic alpha-helical peptide
# B2: D-57445-evo_(L-TrkA) (designed binder)
# chain: [dS][dT][dQ][dE][dL][dV][dE][dE][dL][dL][dE][dL][dV][dR][dK][dD][dL][dE][dE][dA][dR][dK][dL][dA][dK][dE][dI][dV][dK][dE][dL]G[dL][dS][dP][dE][dL][dR][dF][dF][dL][dQ][dL][dA][dI][dA][dL][dA][dQ][dR][dD][dP][dE][dV][dA][dR][dR][dI][dL][dE][dR][dA][dL][dN][dL]
# notes: source: chemically synthesized, folded
# B3: L-57445_(D-TrkA) (designed binder)
# chain: STEELVEELLELARKDPQEARKLVEEIVKELGLSPERRFELQLAIVLAQRDPELARRILERALNH
# notes: source: E. coli Lemo21(DE3), purified (Ni Sepharose, SEC)
# B4: L-57445-evo_(D-TrkA) (designed binder)
# chain: STQELVEELLELVRKDLEEARKLAKEIVKELGLSPELRFFLQLAIALAQRDPEVARRILERALNL
# notes: the methods name only the three parents
# B5: D-25367-evo_(L-IL-6) (designed binder)
# chain: G[dE][dE][dE][dV][dI][dE][dY][dL][dT][dR][dE][dF][dK][dD][dD][dP][dE][dL][dV][dR][dL][dL][dR][dE][dA][dI][dE]G[dL][dL][dK][dA]G[dE][dD][dP][dE][dI][dV][dE][dM][dL][dI][dE][dS][dL][dI][dH][dI][dT]G[dN][dP][dR][dV][dA][dV][dK][dL][dA][dK][dE][dY][dA]
# notes: D-protein form of 25367-evo; source: chemically synthesized, folded
# B6: D-19437_(L-Pep-1) (designed binder)
# chain: G[dS][dL][dP][dV][dE][dK][dI][dI][dR][dE][dA][dK][dK][dI][dL][dD][dE][dL][dL][dK][dR]G[dL][dI][dD][dP][dE][dL][dA][dR][dI][dA][dR][dE][dV][dL][dE][dR][dA][dR][dK][dL]G[dN][dE][dE][dA][dA][dR][dF][dV][dL][dE][dL][dI][dE][dR][dL][dR][dR][dE][dL][dS]G[dS]G
# notes: source: chemically synthesized (Fmoc SPPS), folded by dialysis, purified by SEC
# B7: L-25367-evo_(D-IL-6) (designed binder)
# chain: GEEEVIEYLTREFKDDPELVRLLREAIEGLLKAGEDPEIVEMLIESLIHITGNPRVAVKLAKEYA
# notes: 25367-evo, evolved from design 25367 by directed evolution; the methods name only the three parents
# B8: L-25367_(D-IL-6) (designed binder)
# chain: GEEEVKEYLTRKFKDDPELVRLLREAIEVLLKAGEDPELVLSLIESLIHITGDPRAAVKLAKEFG
# notes: as for B3
# B9: D-25367_(L-IL-6) (designed binder)
# chain: G[dE][dE][dE][dV][dK][dE][dY][dL][dT][dR][dK][dF][dK][dD][dD][dP][dE][dL][dV][dR][dL][dL][dR][dE][dA][dI][dE][dV][dL][dL][dK][dA]G[dE][dD][dP][dE][dL][dV][dL][dS][dL][dI][dE][dS][dL][dI][dH][dI][dT]G[dD][dP][dR][dA][dA][dV][dK][dL][dA][dK][dE][dF]G
# notes: D-protein form of design 25367; source: chemically synthesized (Fmoc SPPS), folded by dialysis, purified by SEC
# B10: D-57445_(L-TrkA) (designed binder)
# chain: [dS][dT][dE][dE][dL][dV][dE][dE][dL][dL][dE][dL][dA][dR][dK][dD][dP][dQ][dE][dA][dR][dK][dL][dV][dE][dE][dI][dV][dK][dE][dL]G[dL][dS][dP][dE][dR][dR][dF][dE][dL][dQ][dL][dA][dI][dV][dL][dA][dQ][dR][dD][dP][dE][dL][dA][dR][dR][dI][dL][dE][dR][dA][dL][dN][dH]
# notes: as for B6
# What was measured:
# D-19437_(L-Pep-1) = biological target: B6; experiment: ITC; MicroCal PEAQ-ITC, 19 injections; peptide titrated over the binder (L-19437 15 uM, D-Pep-1 150 uM); PBS pH 7.4; One Set of Sites mode; settings: both partners purified
# L-TrkA [1] = biological target: T1, L-TrkA (human, biotinylated for BLI (site not stated)); experiment: BLI; Octet RED96e; biotinylated target immobilised on streptavidin biosensors, binder in solution; PBS pH 7.4 with 0.02% TWEEN; 25 °C; global fit; settings: both partners purified
# T1 construct: also called D5 domain of human tropomyosin receptor kinase A
# T1 chain: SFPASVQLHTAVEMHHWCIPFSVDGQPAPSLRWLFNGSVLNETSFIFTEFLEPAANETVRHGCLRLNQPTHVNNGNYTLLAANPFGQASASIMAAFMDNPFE
# L-TrkA [2] = biological target: T1, L-TrkA; experiment: MST; Nanotemper Monolith NT.115; 50 nM L-TrkA, D-57445-evo in 16 two-fold dilutions from 122 pM to 40 uM; PBS with 0.05% Tween20, pH 7.4; MST power 40%; settings: both partners purified
# D-TrkA [3] = biological target: T2, D-TrkA (human, all residues D-amino acids (glycine achiral); biotin on the N-terminus; C-terminal amide); experiment: BLI; Octet RED96e; biotinylated target immobilised on streptavidin biosensors, binder in solution; PBS pH 7.4 with 0.02% TWEEN; 25 °C; global fit; settings: both partners purified
# T2 construct: also called mirror image of the D5 domain of human TrkA
# T2 chain: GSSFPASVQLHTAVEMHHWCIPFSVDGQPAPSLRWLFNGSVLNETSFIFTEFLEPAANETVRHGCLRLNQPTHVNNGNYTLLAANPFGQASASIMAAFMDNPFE
# D-TrkA [4] = biological target: T2, D-TrkA; experiment: as above; settings: both partners purified
# L-IL-6 = biological target: T3, L-IL-6 (human, biotinylated for BLI (site not stated)); experiment: as above; settings: both partners purified
# T3 construct: additional methionine at the N-terminus; human interleukin-6, residues 28-212; also called human interleukin-6
# [5] = biological target: the molecule itself; experiment: SEC; D-19437 alone on Superdex 75 Increase 10/300, compared with the mixture with L-Pep-1; fractions on SDS-PAGE, Coomassie blue
# L-Pep-1 = biological target: B1; experiment: BLI; Octet RED96e; biotinylated target immobilised on streptavidin biosensors, binder in solution; PBS pH 7.4 with 0.02% TWEEN; 25 °C; global fit; settings: both partners purified
# D-IL-6 = biological target: T4, D-IL-6 (human, all residues D-amino acids (glycine achiral); biotin on the N-terminus; C-terminal amide); experiment: as above; settings: both partners purified
# T4 construct: additional methionine at the N-terminus (Met1 of the chain of 186 residues); human interleukin-6, residues 28-212, made of D-amino acids; also called mirror image of human interleukin-6
# T4 sequence (chain, as listed by the source): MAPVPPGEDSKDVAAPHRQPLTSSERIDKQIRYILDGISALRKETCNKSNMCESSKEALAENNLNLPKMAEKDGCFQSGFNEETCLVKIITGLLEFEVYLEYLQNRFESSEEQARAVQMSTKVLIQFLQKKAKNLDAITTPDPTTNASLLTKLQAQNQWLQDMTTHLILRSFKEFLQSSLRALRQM
# D-19437_(L-Pep-1), sequence (chain, as listed by the source): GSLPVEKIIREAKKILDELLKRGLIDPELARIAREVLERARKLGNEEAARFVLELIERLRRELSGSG
binder,measurement,setting,value
B1,Kd,D-19437_(L-Pep-1),12.4 ± 2.1 nM
same,stoichiometry N,D-19437_(L-Pep-1),0.932 ± 0.003 sites
B2,Kd,L-TrkA [1],1.73 nM and 1.8 nM
same,koff,L-TrkA [1],0.000248 s⁻¹ and 0.000243 s⁻¹
same,kon,L-TrkA [1],144000 M⁻¹ s⁻¹ and 135000 M⁻¹ s⁻¹
same,Kd,L-TrkA [2],1.19 nM
B3,Kd,D-TrkA [3],152 nM
same,koff,D-TrkA [3],0.0508 s⁻¹
same,kon,D-TrkA [3],334000 M⁻¹ s⁻¹
B4,Kd,D-TrkA [3],7.85 nM and 10.9 nM
same,koff,D-TrkA [3],0.000297 s⁻¹ and 0.000322 s⁻¹
same,kon,D-TrkA [3],37800 M⁻¹ s⁻¹ and 29400 M⁻¹ s⁻¹
same,Kd,D-TrkA [4],7.84 ± 0.02 nM
B5,Kd,L-IL-6,3.03 nM and 8.75 nM
same,koff,L-IL-6,0.000328 s⁻¹ and 0.000199 s⁻¹
B6,stoichiometry N,[5],2
same,Kd,L-Pep-1,59.6 nM and 37.6 nM
same,koff,L-Pep-1,0.0162 s⁻¹ and 0.0122 s⁻¹
same,kon,L-Pep-1,272000 M⁻¹ s⁻¹ and 324000 M⁻¹ s⁻¹
B7,Kd,D-IL-6,0.724 nM and 1.68 nM
same,koff,D-IL-6,0.000185 s⁻¹ and 0.00046 s⁻¹
same,kon,D-IL-6,256000 M⁻¹ s⁻¹ and 275000 M⁻¹ s⁻¹
B8,Kd,D-IL-6,25.1 nM and 11.8 nM
same,koff,D-IL-6,0.00758 s⁻¹
same,kon,D-IL-6,302000 M⁻¹ s⁻¹ and 644000 M⁻¹ s⁻¹
B9,Kd,L-IL-6,28.3 nM and 48.3 nM
same,koff,L-IL-6,0.0111 s⁻¹ and 0.0102 s⁻¹
same,kon,L-IL-6,391000 M⁻¹ s⁻¹ and 211000 M⁻¹ s⁻¹
B10,Kd,L-TrkA [1],151 nM
same,koff,L-TrkA [1],0.0351 s⁻¹
same,kon,L-TrkA [1],232000 M⁻¹ s⁻¹
